Positions count from the first letter of the chain named. Names and notes keep the numbering of the source.

Series [1] concerns the molecule itself. Put plainly: MALDI-TOF mass spectrometry; C4 ZipTip purified samples, DHAP matrix, linear positive mode; zymogen and mature forms; shows only the covalent (disulphide) dimer.
Series [2] deals with the molecule itself. The series is described as follows: electron microscopy (cryo-TEM, 120 kV); inspection of particles of the purified variants.

B1: pro-meprin α R372T (enzyme, human (from the printed accession), UniProt Q16819 22-600, looked up)
chain: VPIKYLPEENVHDADFGEQKDISEINLAAGLDLFQGDILLQKSRNGLRDPNTRWTFPIPYILADNLGLNAKGAILYAFEMFRLKSCVDFKPYEGESSYIIFQQFDGCWSEVGDQHVGQNISIGQGCAYKAIIEHEILHALGFYHEQSRTDRDDYVNIWWDQILSGYQHNFDTYDDSLITDLNTPYDYESLMHYQPFSFNKNASVPTITAKIPEFNSIIGQRLDFSAIDLERLNRMYNCTTTHTLLDHCTFEKANICGMIQGTRDDTDWAHQDSAQAGEVDHTLLGQCTGAGYFMQFSTSSGSAEEAALLESRILYPKRKQQCLQFFYKMTGSPSDRLVVWVRRDDSTGNVTKLVKVQTFQGDDDHNWKIAHVVLKEEQKFRYLFQGTKGDPQNSTGGIYLDDITLTETPCPTGVWTVRNFSQVLENTSKGDKLQSPRFYNSEGYGFGVTLYPNSRESSGYLRLAFHVCSGENDAILEWPVENRQVIITILDQEPDVRNRMSSSMVFTTSKSHTSPAINDTVIWDRPSRVGTYHTDCNCFRSIDLGWSGFISHQMLKRRSFLKNDDLIIFVDFEDITHLS
notes: meprin α pro-form V22-S600 of uniprot Q16819 with R372T (removes a salt bridge of the helix interface); SEC-MALS was done on the zymogen (legend S6c); also called Pro-Meprin α variant R372T; source: S2 cells, secreted, purified (HIC-EBA, Strep-Tactin)
As to B1, the “stoichiometry N” value in series [1] came to 2.

B2: pro-meprin α (V22-S600), wild type (enzyme, human (from the printed accession), UniProt Q16819 22-600, looked up)
chain: B1 chain with T351R
modifications: N-linked glycosylations (sites not given in the text)
notes: meprin α, pro-form without signal peptide, EGF-like domain and transmembrane region; V22-S600 of uniprot Q16819; Cloned into pMT/BiP/V5; Subunits form a disulphide-linked (C308) homodimer; the dimers form helical filaments; also called zymogen; wild type meprin α; source: Schneider-2 Drosophila cells (S2), secreted, purified (HIC-EBA, Strep-Tactin)
B2: in series [1], the “stoichiometry N” value came out at 2.

B3: pro-meprin α R372A (enzyme, human (from the printed accession), UniProt Q16819 22-600, looked up)
chain: B1 chain with T351A
notes: meprin α pro-form V22-S600 of uniprot Q16819 with R372A (removes a salt bridge of the helix interface); source: S2 cells, secreted, purified (HIC-EBA, Strep-Tactin)
With B3, in series [2], the “stoichiometry N” value stood at 2.

B4: meprin α, active (mature) form, wild type (enzyme, human (from the printed accession), UniProt Q16819 22-600, looked up)
chain: NGLRDPNTRWTFPIPYILADNLGLNAKGAILYAFEMFRLKSCVDFKPYEGESSYIIFQQFDGCWSEVGDQHVGQNISIGQGCAYKAIIEHEILHALGFYHEQSRTDRDDYVNIWWDQILSGYQHNFDTYDDSLITDLNTPYDYESLMHYQPFSFNKNASVPTITAKIPEFNSIIGQRLDFSAIDLERLNRMYNCTTTHTLLDHCTFEKANICGMIQGTRDDTDWAHQDSAQAGEVDHTLLGQCTGAGYFMQFSTSSGSAEEAALLESRILYPKRKQQCLQFFYKMTGSPSDRLVVWVRRDDSTGNVRKLVKVQTFQGDDDHNWKIAHVVLKEEQKFRYLFQGTKGDPQNSTGGIYLDDITLTETPCPTGVWTVRNFSQVLENTSKGDKLQSPRFYNSEGYGFGVTLYPNSRESSGYLRLAFHVCSGENDAILEWPVENRQVIITILDQEPDVRNRMSSSMVFTTSKSHTSPAINDTVIWDRPSRVGTYHTDCNCFRSIDLGWSGFISHQMLKRRSFLKNDDLIIFVDFEDITHLS
modifications: N-linked glycosylations (sites not given in the text)
notes: meprin α construct V22-S600 of uniprot Q16819 after removal of the pro-peptide by trypsin; also called active state
On to B4, for which, in series [1], the “stoichiometry N” value was 2.

Source of the values: article doi:10.1101/2022.03.13.484121, “Helical ultrastructure of the oncogenic metalloprotease meprin α in complex with a small molecule hydroxamate inhibitor” (bioRxiv, 2022).
